According to publication PMC9834240, “Senescent cells perturb intestinal stem cell differentiation through Ptk7 induced noncanonical Wnt and YAP signaling” (Nature Communications, 2023):

Columns and labels:
Type in all cases: cell-based
[1] = test system: YAP in mouse intestinal organoids; assay: whole mount immunostaining for YAP nuclear localization
Method: For whole mount staining, freshly passaged crypts were mixed with Matrigel (Corning, #356231) and mounted to µ-Slide 8 well chamber slides (ibidi, #80826). Media were changed every 2–3 d. 5 days later, organoids in the chamber slides were then fixed in 4% formaldehyde in PBS for 30 min, permeabilized with 0.5% Triton X-100 for 1 h, and incubated in blocking solution (3% normal donkey serum (Sigma-Aldrich, #566460) and 5% BSA (Sigma-Aldrich, #A7979) in 0.1% Triton X-100 + PBS) for 1 h. Primary and secondary antibodies were diluted in blocking solution and added to fixed organoids. Organoids were incubated with primary antibodies overnight at 4 °C and with secondary antibodies for 2 h. ProLong Diamond Antifade Mountant (Invitrogen, # P36970) was added. Images were acquired with a Yokogawa CSU-W1/Zeiss 3i Marianas spinning disk confocal microscopy system. For each organoid, Z-planes up to 100 μm with 1 or 1.5 μm z-steps were acquired to quantify the number of cell types.

[2] = test system: mouse intestinal organoids; assay: cystic organoid percentage, organoids in conditioned media (SCM/QCM) with or without inhibitors or antibodies; conditions: SCM-exposed organoids
Method: Twenty-four hours before collecting conditioned media (CM), MEFs were washed with serum-free DMEM twice, and serum-free DMEM was added. After 24 h in serum-free DMEM, this CM was collected, filtered using Steriflip filters (Millipore, #SE1M179M6) to remove cell debris, and concentrated using centrifugal filter units (Amicon ultra-15 centricon; Millipore, # UFC900324). […] CM was filtered and dialyzed for 24–48 h to remove the inhibitors before concentration.
(§1) The jejunum part of the small intestine was removed, flushed with PBS, opened longitudinally, then cut into 0.5 cm pieces. The collected tissues were washed with ice cold PBS multiple times by vortexing and incubated in PBS containing 2.5 mM EDTA for 5 min at 37 °C. After gentle shaking and aspiration, tissues were incubated in PBS containing 5 mM EDTA for 7 min at 37 °C. Tissues were then washed with PBS to remove EDTA and vigorously shaken to release crypts. The released crypts were passed through 70 μm strainers, washed with PBS, and pelleted by centrifugation at 200 × g.
(§2) 3-4 biological replicates of organoids from different mice were used per condition. Organoids were cultured in the indicated media, inhibitors, antibodies and/or recombinant proteins for 5 d and fixed in 4% formaldehyde in PBS. Organoids were imaged with a 4× Plan Fluor objective (NA: 0.13, Nikon) on a Nikon Ti-E inverted microscope equipped with a Neo scMOS camera (Andor, Oxford Instruments), a linear encoded automated stage (Applied Scientific Instrumentation), all run by NIS Elements software (Nikon). Organoids were imaged in brightfield and images covering the whole well were stitched and focused into one image projection with an extended depth of focus module (EDF; Nikon). One hundred to 200 organoids per replicate per condition were counted and used for quantification. The number of budding organoids in each condition was normalized by the number of budding organoids in untreated or DMSO treated controls to calculate cystic organoid percentage:1 Cysticorganoidpercentage=100×1−Numberofbuddingorganoidsfromexperiment/Numberofbuddingorganoidsfromcontrol

[3] = test system: mouse intestinal organoids; assay: inhibition of Wnt5a-induced cystic organoids; conditions: Wnt5a-treated organoids
Method: as §1, with “g. Resuspended crypts were mixed with Matrigel (Corning, #356231; Lot#8218007) and pipetted into culture plates. After mixture of crypts and Matrigel solidified, IntestiCult Organoid Growth Medium (Stem Cell Technologies, #06005; Lots #1000021927, #1000034230, #1000037372) was added. Seven days after seeding, organoids were resuspended in dissociation buffer (Gentle Cell Dissociation Reagent; Stem Cell Technologies, #07174), dissociated by pipetting, and seeded for experiments.” for “g.”
as §2

[4] = test system: mouse intestinal organoids; assay: cystic organoid percentage, co-culture with quiescent or senescent intestinal fibroblasts; design: key: % = 100×(1 − budding organoids treated/budding organoids control); conditions: relative to DMSO = 0
Method: as §2
Mouse intestinal fibroblasts were purchased from Cell Biologics (#C57-6231) and cultured in Complete Fibroblast Medium (Cell Biologics, M2267) at 37 °C and 5% CO2. Cellular quiescence and senescence in mouse intestinal fibroblasts were induced by the similar methods described earlier for MEFs with minor modifications. Briefly, cellular quiescence was induced by culturing the fibroblasts in low serum (0.5% FBS), and cellular senescence was induced by 500 nM doxorubicin treatment for 5 days (doxorubicin; Sigma-Aldrich, #44583). Once cellular quiescence or senescence was induced, MEFs were maintained at 37 °C, 5% CO2, and 3% O2 for another 5 days. The quiescent or senescent fibroblasts were dissociated using 0.05% Trypsin-EDTA (Gibco, #25300-054) and counted for seeding. The same number of quiescent and senescent fibroblasts (5.2 × 10^4 cells) were mixed with intestinal organoids making total volume of 20 μl of Matrigel: organoid culture media mix, which was mounted on a 48 well plate.

[5] = test system: mouse intestinal organoids; assay: cystic organoid percentage, organoids treated with recombinant Wnt ligands (Wnt3a, Wnt5a, Wnt11); conditions: for cystic organoid percentage: SF.3p, Untreated = 0
Method: as §1, with “g. Resuspended crypts were mixed with Matrigel (Corning, #356231; Lot#8218007) and pipetted into culture plates. After mixture of crypts and Matrigel solidified, IntestiCult Organoid Growth Medium (Stem Cell Technologies, #06005; Lots #1000021927, #1000034230, #1000037372) was added. Seven days after seeding, organoids were resuspended in dissociation buffer (Gentle Cell Dissociation Reagent; Stem Cell Technologies, #07174), dissociated by pipetting, and seeded for experiments.” for “g.”
as §2

[6] = test system: β-Catenin-dependent Wnt signaling (HEK293-TB cells); assay: TOPbrite dual-luciferase Wnt reporter assay; conditions: SF.3e
Method: Generation of HEK293 cells stably expressing a TOPbrite firefly luciferase Wnt reporter and pRL-SV40 Renilla luciferase (HEK293-TB) was previously described. HEK293-TB cells were maintained in DMEM/F12 (50:50), supplemented with 10% FBS, 2 mM Glutamax (Gibco, #35050-061) and 40 μg/ml hygromycin (Cellgro, #30-240-CR). For the luciferase reporter assay, HEK293-TB cells were seeded in 96-well plates (Falcon, #353377). The next day, cells were treated with indicated Wnt ligands (50 ng/ml) or CM diluted in culture media. After 24 h, the firefly and Renilla luciferase activity was measured using Dual-Glo Luciferase Assay system (Promega, #E2940) on a Perkin Elmer EnVision multilabel reader. The ratios of firefly luminescence to Renilla luminescence were calculated and normalized to control samples that were not treated.

## O=C(O)c1ccc2c3c1cccc3c(=O)n1c3ccccc3nc21 [STO-609]
[1]
  effect on nuclear localization of YAP: reversed SCM- or Wnt5a-induced nuclear translocation of YAP
[2]
  effect on cystic organoid phenotype: suppressed the cystic organoid phenotype

## CN1CCN(CCCN2c3ccccc3Sc3ccc(C(F)(F)F)cc32)CC1 [TFP, Trifluoperazine]
[1]
  effect on nuclear localization of YAP: reversed SCM- or Wnt5a-induced nuclear translocation of YAP
[3]
  effect on Wnt5a-induced cystic organoid phenotype: reduced the percentage of cystic organoids
[2]
  effect on cystic organoid phenotype: reduced the percentage of cystic organoids

## CN([C@@H](Cc1ccc(OS(=O)(=O)c2cccc3cnccc23)cc1)C(=O)N1CCN(c2ccccc2)CC1)S(=O)(=O)c1cccc2cnccc12 [KN-62]
[1]
  effect on nuclear localization of YAP: reversed SCM- or Wnt5a-induced nuclear translocation of YAP
[2]
  effect on cystic organoid phenotype: suppressed the cystic organoid phenotype

## C=CC[C@@H]1/C=C(\C)C[C@H](C)C[C@H](OC)[C@H]2O[C@@](O)(C(=O)C(=O)N3CCCC[C@H]3C(=O)O[C@H](/C(C)=C/[C@@H]3CC[C@@H](O)[C@H](OC)C3)[C@H](C)[C@@H](O)CC1=O)[C@H](C)C[C@@H]2OC [FK506]
[4]; 10 uM FK506, no fibroblasts, replicate 1
  cystic organoids (sheet SF.5d): 16.7523
[4]; 10 uM FK506, no fibroblasts, replicate 2
  cystic organoids (sheet SF.5d): 26.0945
[4]; 10 uM FK506, no fibroblasts, replicate 3
  cystic organoids (sheet SF.5d): 24.3439
[4]; Q + 10uM FK506 (quiescent fibroblasts), replicate 1
  cystic organoids (sheet SF.5d): 27.9243
[4]; Q + 10uM FK506 (quiescent fibroblasts), replicate 2
  cystic organoids (sheet SF.5d): 44.452
[4]; Q + 10uM FK506 (quiescent fibroblasts), replicate 3
  cystic organoids (sheet SF.5d): 38.0019
[4]; SEN + 10uM FK506 (senescent fibroblasts), replicate 1
  cystic organoids (sheet SF.5d): 52.1362
[4]; SEN + 10uM FK506 (senescent fibroblasts), replicate 2
  cystic organoids (sheet SF.5d): 72.7766
[4]; SEN + 10uM FK506 (senescent fibroblasts), replicate 3
  cystic organoids (sheet SF.5d): 37.8556
[2]
  effect on cystic organoid phenotype: had no effect on this phenotype

B1: Wnt11: noncanonical Wnt ligand; recombinant protein, R&D Systems 6179-WN-010 (protein, UniProt O96014 25-354, looked up)
Protein Wnt-11: IKWLALSKTPSALALNQTQHCKQLEGLVSAQVQLCRSNLELMHTVVHAAREVMKACRRAFADMRWNCSSIELAPNYLLDLERGTRESAFVYALSAAAISHAIARACTSGDLPGCSCGPVPGEPPGPGNRWGGCADNLSYGLLMGAKFSDAPMKVKKTGSQANKLMRLHNSEVGRQALRASLEMKCKCHGVSGSCSIRTCWKGLQELQDVAADLKTRYLSATKVVHRPMGTRKHLVPKDLDIRPVKDSELVYLQSSPDFCMKNEKVGSHGTQDRQCNKTSNGSDSCDLMCCGRGYNPYTDRVVERCHCKYHWCCYVTCRRCERTVERYVCK
[5]; 25ng/ml, replicate 1
  cystic organoid percentage: 1.8358
[5]; 25ng/ml, replicate 2
  cystic organoid percentage: -0.2717
[5]; 25ng/ml, replicate 3
  cystic organoid percentage: -1.279
[5]; 50ng/ml, replicate 1
  cystic organoid percentage: -0.06739
[5]; 50ng/ml, replicate 2
  cystic organoid percentage: -5.163
[5]; 50ng/ml, replicate 3
  cystic organoid percentage: 1.176
[5]; 100ng/ml, replicate 1
  cystic organoid percentage: -0.2558
[5]; 100ng/ml, replicate 2
  cystic organoid percentage: -1.25
[5]; 100ng/ml, replicate 3
  cystic organoid percentage: 2.262
[5]; 250 ng/ml, replicate 1
  cystic organoid percentage: 2.331
[5]; 250 ng/ml, replicate 2
  cystic organoid percentage: -7.143
[5]; 250 ng/ml, replicate 3
  cystic organoid percentage: 1.176
[5]; 500ng/ml, replicate 1
  cystic organoid percentage: 2.331
[5]; 500ng/ml, replicate 2
  cystic organoid percentage: -1.6129
[5]; 500ng/ml, replicate 3
  cystic organoid percentage: 1.42
[5]; 1ug/ml, replicate 1
  cystic organoid percentage: 2.516
[5]; 1ug/ml, replicate 3
  cystic organoid percentage: -0.8403
[5]; recombinant Wnt ligand added to crypt cultures
  induction of cystic organoids: failed to induced cystic organoids
[6]; replicate 1
  TOPbrite dual-luciferase Wnt reporter activity: 0.9689
[6]; replicate 2
  TOPbrite dual-luciferase Wnt reporter activity: 1.428
[6]; replicate 3
  TOPbrite dual-luciferase Wnt reporter activity: 1.229
[6]; replicate 4
  TOPbrite dual-luciferase Wnt reporter activity: 1.621
